Test results taken from the supplement of paper PMC7125110.
± gives the standard error. This sample holds only a part of the variants without activity.

B1: glmS ribozyme (parent)
chain: AUAAAAGCGCCAGAACUACAGAAAUGUAGUUGACGAGGAGGAGGUUUAUCGAAUUUUCGGCGGAUGCCUCCAAA

Key:
Details in all cases: with glucosamine-6-phosphate
glucosamine-6-phosphate [1] = variants of: B1; assay: self-cleavage kobs at 40 uM GlcN6P; higher = faster cleavage; RNA array
Summary of the method: (§1)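 Using a hybridised Cy3 probe at 37 °C, barcoded ribozyme variants transcribed in situ by E. coli RNA polymerase on sequenced MiSeq chips were monitored across tiles imaged over ~14 h. The flow contained glucosamine-6-phosphate from 40 μM to 10 mM in HEPES/KCl/Mg(OAc)2 buffer. Signals were normalised to baseline and to non-cleaving reference variants before per-tile medians were fit to one- or two-exponential decays to yield kobs. Weighted Michaelis–Menten fits across concentrations gave kcat and KM.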

glucosamine-6-phosphate [2] = variants of: B1; assay: self-cleavage kobs at 2500 uM GlcN6P; higher = faster cleavage; RNA array
Summary of the method: as §1

glucosamine-6-phosphate [3] = variants of: B1; assay: self-cleavage kobs at 10000 uM GlcN6P; higher = faster cleavage; RNA array
Summary of the method: as §1

glucosamine-6-phosphate [4] = variants of: B1; assay: self-cleavage kobs at 160 uM GlcN6P; higher = faster cleavage; RNA array
Summary of the method: as §1

glucosamine-6-phosphate [5] = variants of: B1; assay: self-cleavage kobs at 640 uM GlcN6P; higher = faster cleavage; RNA array
Summary of the method: as §1

Variant	self-cleavage kobs at 40 uM GlcN6P (glucosamine-6-phosphate [1]) [s⁻¹]	self-cleavage kobs at 2500 uM GlcN6P (glucosamine-6-phosphate [2]) [s⁻¹]	self-cleavage kobs at 10000 uM GlcN6P (glucosamine-6-phosphate [3]) [s⁻¹]	self-cleavage kobs at 160 uM GlcN6P (glucosamine-6-phosphate [4]) [s⁻¹]	self-cleavage kobs at 640 uM GlcN6P (glucosamine-6-phosphate [5]) [s⁻¹]
U30A G38C A52G U69A	< 1e-05	< 1e-05	< 1e-05	–	–
G29C C50G	5.44e-05 ± 1.3e-05	0.000178 ± 3.6e-05	2.54e-05 ± 1.1e-05	0.000194 ± 5.9e-05	0.000208 ± 4.9e-05
C16A G44C C50A	< 1e-05	–	< 1e-05	–	–
C10A A64U	< 1e-05	< 1e-05	< 1e-05	–	< 1e-05
G40U G63U	< 1e-05	–	< 1e-05	< 1e-05	–
C10U G32A G51C C67U C71U	< 1e-05	< 1e-05	–	–	–
A36U G44C U47G	< 1e-05	–	< 1e-05	–	–
G9U G29A U30A C67U	< 1e-05	–	–	–	–
G40C G41C	< 1e-05	–	6.89e-05 ± 1.3e-05	–	–
G37A C68A	< 1e-05	< 1e-05	< 1e-05	< 1e-05	< 1e-05
C58U G60A	< 1e-05	< 1e-05	< 1e-05	–	< 1e-05
C8A C50U G51C A53C U65A	< 1e-05	–	–	–	< 1e-05
G32C A53U G66U	< 1e-05	–	–	–	–
A36C G44U U54G G66A C71A	< 1e-05	–	< 1e-05	–	–
G32A G40U C67G	< 1e-05	< 1e-05	–	–	< 1e-05
G13A G60U A64C	< 1e-05	–	–	–	–
G44U A48G	< 1e-05	< 1e-05	< 1e-05	< 1e-05	< 1e-05
G37A C61U	< 1e-05	< 1e-05	–	–	< 1e-05
C10U G43U	< 1e-05	< 1e-05	< 1e-05	< 1e-05	< 1e-05
A12U U30G U56G	0.000609 ± 0.00013	–	0.0339 ± 0.0098	–	–
A12U A14G A52G	0.000148 ± 3e-05	0.00387 ± 0.0018	0.00726 ± 0.0014	–	–
A12U G35U U49C	< 1e-05	< 1e-05	–	–	–
A48U C50U C58A	< 1e-05	–	–	< 1e-05	< 1e-05

Variant	self-cleavage kobs at 40 uM GlcN6P (glucosamine-6-phosphate [1]) [s⁻¹]	self-cleavage kobs at 2500 uM GlcN6P (glucosamine-6-phosphate [2]) [s⁻¹]	self-cleavage kobs at 10000 uM GlcN6P (glucosamine-6-phosphate [3]) [s⁻¹]	self-cleavage kobs at 160 uM GlcN6P (glucosamine-6-phosphate [4]) [s⁻¹]	self-cleavage kobs at 640 uM GlcN6P (glucosamine-6-phosphate [5]) [s⁻¹]
G32U A53G A64U	< 1e-05	–	–	–	–
A39G C71A	0.000536 ± 7.8e-05	0.00277 ± 0.00061	0.00612 ± 0.0011	0.000645 ± 9.8e-05	0.00173 ± 0.00045
C10U G13A C67A	< 1e-05	–	< 1e-05	–	< 1e-05
G9U C58A	< 1e-05	–	< 1e-05	–	–
C8G A48U C71G	< 1e-05	–	< 1e-05	–	–
C10A A36U C68G	8.85e-05 ± 2.9e-05	–	6.62e-05 ± 2.1e-05	–	–
A14C U55A U56G	0.002 ± 0.00048	0.0295 ± 0.013	–	–	0.0195 ± 0.0041
G9U U45G A53G G62U	< 1e-05	–	< 1e-05	–	–
G7C C34G	< 1e-05	< 1e-05	< 1e-05	< 1e-05	< 1e-05
U30C A42U G44A A48G G59A	< 1e-05	< 1e-05	–	–	–
G51A G60C	< 1e-05	–	–	–	< 1e-05
A6C G7U G35A C58U G60A	< 1e-05	–	–	–	< 1e-05
A15G G44U G51C A52G U56G	< 1e-05	–	–	< 1e-05	< 1e-05
G40A G41C G43U	< 1e-05	–	–	–	–
G29A A42C	< 1e-05	–	< 1e-05	< 1e-05	< 1e-05
G41C G44A	< 1e-05	–	< 1e-05	< 1e-05	< 1e-05
C8G U46G	< 1e-05	< 1e-05	< 1e-05	< 1e-05	< 1e-05
G13A A36G C50G G66C	0.000105 ± 3.1e-05	–	–	–	–
G37U G38A A42C	< 1e-05	< 1e-05	< 1e-05	–	< 1e-05
U55G C71G	7.4e-05 ± 1.7e-05	0.000704 ± 0.00019	0.00121 ± 0.00035	–	–
A12U A52G C67U	7.05e-05 ± 1.6e-05	–	0.00179 ± 0.00037	–	–
G9U C16U A52G C67G	0.000158 ± 3.7e-05	–	0.000546 ± 0.00017	–	–
G60C G62C	< 1e-05	–	–	< 1e-05	–
